Experimental data: patent publication US20170044239A1

Assays:
[1] = target: hemagglutinin on BS/07 H1N1 virus (A/Brisbane/59/2007) (Influenza A virus A/Brisbane/59/2007 (H1N1)); assay: cell-based or functional assay
[2] = target: BS/07 H1 HA (recombinant ectodomain of hemagglutinin from A/Brisbane/59/2007, H1N1) (Influenza A virus A/Brisbane/59/2007 (H1N1))

| Substance | IC50, neutralization of BS/07 H1N1 infection [1] [µg/mL] | normalized binding affinity [2] | normalized neutralizing potency against BS/07 H1N1 [1] |
| --- | --- | --- | --- |
| F10 IgG (antibody) | 1.85 | – | – |
| F10 scFv (phage-free soluble, E-tag) | – | 1 | 1 |
